Data on one substance can be found in patent EP4755920A1.

pIC50: −log10 of the molar value.

In the assay the target is hIL4Rα-ECD(26-232)-mFc (human). In words: competition ELISA, hIL4R-ECD-mFc captured by anti-mFc, biotinylated human IL4 as competitor.

By pIC50 is commonly meant −log10 of the IC50, conventionally taken in molar units. The low end stands for a high IC50, the high end for a low IC50.

Isotype (antibody) had a pIC50 of 8.00.
